T1: PUF4 RNA-binding domain (Saccharomyces cerevisiae, UniProt P25339 537-888)
T1 sequence: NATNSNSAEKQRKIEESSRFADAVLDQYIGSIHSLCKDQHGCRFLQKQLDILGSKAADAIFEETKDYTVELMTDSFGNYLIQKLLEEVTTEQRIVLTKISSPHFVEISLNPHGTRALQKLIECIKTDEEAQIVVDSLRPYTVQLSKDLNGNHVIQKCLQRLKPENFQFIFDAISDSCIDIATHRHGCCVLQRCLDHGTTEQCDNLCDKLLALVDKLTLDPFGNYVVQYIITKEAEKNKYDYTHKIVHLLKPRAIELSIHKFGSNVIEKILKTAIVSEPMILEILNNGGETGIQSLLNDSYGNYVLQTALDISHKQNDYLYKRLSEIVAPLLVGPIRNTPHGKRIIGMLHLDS


Target: T1, PUF4 RNA-binding domain
Experiment: Mg; RNA-MaP; 20 mM Na-HEPES pH 7.4, 30 mM KOAc, 0.75 mM MgCl2, 0.1% Tween-20, 5% glycerol, 0.1 mg/mL BSA, 2 mM DTT; 25 C; 0.0125-409.6 nM protein
Conditions: tags: N-His6-TEV cleaved; C-SNAP kept, Cy3B-labelled; label: tethered on chip by stalled RNA polymerase

Row | Binder | Kd [nM]
1 | Ib_S2_P4E.1_K4.1_C4.1_H4.1_A4.1_[T5A]_[A6C]_F4.1_T4.1 (ssRNA) RNA: UUUGAUUAAUAUGAUAUCGUUCUUUCUUGUAACUUAUUCUUUCUCGAUAUCAUAUUAAUCUUU | 2.62
2 | Ic_S2_P4E.1_K4.1_C4.1_H4.1_A4.1_[T5A]_[A6T]_F4.1_T4.1 (ssRNA) RNA: UUUGAUUAAUAUGAUAUCGUUCUUUCUUGUAAUUUAUUCUUUCUCGAUAUCAUAUUAAUCUUU | 2.07
3 | Ib_S2_P4E.1_K4.1_C4.1_H4.1_A4.1_[T5C]_[T7G]_F4.1_T4.1 (ssRNA) RNA: UUUGAUUAAUAUGAUAUCGUUCUUUCUUGUACAGUAUUCUUUCUCGAUAUCAUAUUAAUCUUU | 0.884
4 | Ia_S2_P4E.1_K4.1_C4.1_H4.1_A4.1_[A6G]_F4.1_T4.1 (ssRNA) RNA: UUUGAUUAAUAUGAUAUCGUUCUUUCUUGUAUGUUAUUCUUUCUCGAUAUCAUAUUAAUCUUU | 2.55
5 | Ib_S2_P4E.1_K4.1_C4.1_H4.1_A4.1_[T5C]_[T7C]_F4.1_T4.1 (ssRNA) RNA: UUUGAUUAAUAUGAUAUCGUUCUUUCUUGUACACUAUUCUUUCUCGAUAUCAUAUUAAUCUUU | 0.279
6 | Ib_S2_P4E.1_K4.1_C4.1_H4.1_A4.1_[T5A]_[T7C]_F4.1_T4.1 (ssRNA) RNA: UUUGAUUAAUAUGAUAUCGUUCUUUCUUGUAAACUAUUCUUUCUCGAUAUCAUAUUAAUCUUU | 1.21
7 | Ib_S2_P4E.1_K4.1_C4.1_H4.1_A4.1_[T5A]_[T7A]_F4.1_T4.1 (ssRNA) RNA: UUUGAUUAAUAUGAUAUCGUUCUUUCUUGUAAAAUAUUCUUUCUCGAUAUCAUAUUAAUCUUU | 1.83
8 | Ic_S2_P4E.1_K4.1_C4.1_H4.1_A4.1_[A6G]_[T7C]_F4.1_T4.1 (ssRNA) RNA: UUUGAUUAAUAUGAUAUCGUUCUUUCUUGUAUGCUAUUCUUUCUCGAUAUCAUAUUAAUCUUU | 2.71
9 | Ib_S2_P4E.1_K4.1_C4.1_H4.1_A4.1_[A6C]_[T7G]_F4.1_T4.1 (ssRNA) RNA: UUUGAUUAAUAUGAUAUCGUUCUUUCUUGUAUCGUAUUCUUUCUCGAUAUCAUAUUAAUCUUU | 8.48
10 | Ic_S2_P4E.1_K4.1_C4.1_H4.1_A4.1_[A6C]_[T7C]_F4.1_T4.1 (ssRNA) RNA: UUUGAUUAAUAUGAUAUCGUUCUUUCUUGUAUCCUAUUCUUUCUCGAUAUCAUAUUAAUCUUU | 1.76
11 | Ic_S2_P4E.1_K4.1_C4.1_H4.1_A4.1_[A6C]_[T7A]_F4.1_T4.1 (ssRNA) RNA: UUUGAUUAAUAUGAUAUCGUUCUUUCUUGUAUCAUAUUCUUUCUCGAUAUCAUAUUAAUCUUU | 0.595
12 | Ic_S2_P4E.1_K4.1_C4.1_H4.1_A4.1_[A6T]_[T7G]_F4.1_T4.1 (ssRNA) RNA: UUUGAUUAAUAUGAUAUCGUUCUUUCUUGUAUUGUAUUCUUUCUCGAUAUCAUAUUAAUCUUU | 4.85
13 | Ic_S2_P4E.1_K4.1_C4.1_H4.1_A4.1_[A6T]_[T7C]_F4.1_T4.1 (ssRNA) RNA: UUUGAUUAAUAUGAUAUCGUUCUUUCUUGUAUUCUAUUCUUUCUCGAUAUCAUAUUAAUCUUU | 1
14 | Ic_S2_P4E.1_K4.1_C4.1_H4.1_A4.1_[A6T]_[T7A]_F4.1_T4.1 (ssRNA) RNA: UUUGAUUAAUAUGAUAUCGUUCUUUCUUGUAUUAUAUUCUUUCUCGAUAUCAUAUUAAUCUUU | 0.912
15 | Ia_S2_P4E.1_K4.1_C4.1_H4.1_A4.1_[A6C]_F4.1_T4.1 (ssRNA) RNA: UUUGAUUAAUAUGAUAUCGUUCUUUCUUGUAUCUUAUUCUUUCUCGAUAUCAUAUUAAUCUUU | 1.21
16 | Ib_S2_P5E.1_K5.1_C5.1_H5.1_A5.1_F5.1_[T8C]_[T9C]_T5.1 (ssRNA) RNA: UUUGAUUAAUAUGAUAUCGUUCUUUCUUGUAUUACCAUUCUUUCUCGAUAUCAUAUUAAUCUUU | 321
17 | Ib_S2_P5E.1_K5.1_C5.1_H5.1_A5.1_F5.1_[T8C]_[A10G]_T5.1 (ssRNA) RNA: UUUGAUUAAUAUGAUAUCGUUCUUUCUUGUAUUACUGUUCUUUCUCGAUAUCAUAUUAAUCUUU | 64.4
18 | Ib_S2_P5E.1_K5.1_C5.1_H5.1_A5.1_F5.1_[T8C]_[A10T]_T5.1 (ssRNA) RNA: UUUGAUUAAUAUGAUAUCGUUCUUUCUUGUAUUACUUUUCUUUCUCGAUAUCAUAUUAAUCUUU | 64.6
19 | Ib_S2_P5E.1_K5.1_C5.1_H5.1_A5.1_F5.1_[T8A]_[A10C]_T5.1 (ssRNA) RNA: UUUGAUUAAUAUGAUAUCGUUCUUUCUUGUAUUAAUCUUCUUUCUCGAUAUCAUAUUAAUCUUU | 181
20 | Ib_S2_P5E.1_K5.1_C5.1_H5.1_A5.1_F5.1_[T9G]_[A10T]_T5.1 (ssRNA) RNA: UUUGAUUAAUAUGAUAUCGUUCUUUCUUGUAUUAUGUUUCUUUCUCGAUAUCAUAUUAAUCUUU | 3.65
21 | Ib_S2_P5E.1_K5.1_C5.1_H5.1_A5.1_F5.1_[T9C]_[A10C]_T5.1 (ssRNA) RNA: UUUGAUUAAUAUGAUAUCGUUCUUUCUUGUAUUAUCCUUCUUUCUCGAUAUCAUAUUAAUCUUU | 19.4
22 | Ic_S2_P5E.1_K5.1_C5.1_H5.1_A5.1_F5.1_[T9C]_[A10T]_T5.1 (ssRNA) RNA: UUUGAUUAAUAUGAUAUCGUUCUUUCUUGUAUUAUCUUUCUUUCUCGAUAUCAUAUUAAUCUUU | 17.6
23 | Ib_S2_P5E.1_K5.1_C5.1_H5.1_A5.1_F5.1_[T9A]_[A10G]_T5.1 (ssRNA) RNA: UUUGAUUAAUAUGAUAUCGUUCUUUCUUGUAUUAUAGUUCUUUCUCGAUAUCAUAUUAAUCUUU | 3.11

Row | Binder | Kd [nM]
24 | Ib_S2_P5E.1_K5.1_C5.1_H5.1_A5.1_F5.1_[T9A]_[A10C]_T5.1 (ssRNA) RNA: UUUGAUUAAUAUGAUAUCGUUCUUUCUUGUAUUAUACUUCUUUCUCGAUAUCAUAUUAAUCUUU | 7.25
25 | Ib_S2_P5E.1_K5.1_C5.1_H5.1_A5.1_F5.1_[T9A]_[A10T]_T5.1 (ssRNA) RNA: UUUGAUUAAUAUGAUAUCGUUCUUUCUUGUAUUAUAUUUCUUUCUCGAUAUCAUAUUAAUCUUU | 0.947
26 | Ia_S2_P4E.1_K4.1_C4.1_H4.1_A4.1_[T7G]_F4.1_T4.1 (ssRNA) RNA: UUUGAUUAAUAUGAUAUCGUUCUUUCUUGUAUAGUAUUCUUUCUCGAUAUCAUAUUAAUCUUU | 1.05
27 | Ib_S2_P5E.1_K5.1_C5.1_H5.1_[G2A]_A5.1_F5.1_[T8G]_T5.1 (ssRNA) RNA: UUUGAUUAAUAUGAUAUCGUUCUUUCUUAUAUUAGUAUUCUUUCUCGAUAUCAUAUUAAUCUUU | 695
28 | Ib_S2_P5E.1_K5.1_C5.1_H5.1_[T3C]_A5.1_F5.1_[T8C]_T5.1 (ssRNA) RNA: UUUGAUUAAUAUGAUAUCGUUCUUUCUUGCAUUACUAUUCUUUCUCGAUAUCAUAUUAAUCUUU | 562
29 | Ib_S2_P5E.1_K5.1_C5.1_H5.1_[T3C]_A5.1_F5.1_[T8A]_T5.1 (ssRNA) RNA: UUUGAUUAAUAUGAUAUCGUUCUUUCUUGCAUUAAUAUUCUUUCUCGAUAUCAUAUUAAUCUUU | 1260
30 | Ib_S2_P5E.1_K5.1_C5.1_H5.1_[A4C]_A5.1_F5.1_[T8C]_T5.1 (ssRNA) RNA: UUUGAUUAAUAUGAUAUCGUUCUUUCUUGUCUUACUAUUCUUUCUCGAUAUCAUAUUAAUCUUU | 39.2
31 | Ib_S2_P5E.1_K5.1_C5.1_H5.1_[A4T]_A5.1_F5.1_[T8C]_T5.1 (ssRNA) RNA: UUUGAUUAAUAUGAUAUCGUUCUUUCUUGUUUUACUAUUCUUUCUCGAUAUCAUAUUAAUCUUU | 25
32 | Ib_S2_P5E.1_K5.1_C5.1_H5.1_[A4T]_A5.1_F5.1_[T8A]_T5.1 (ssRNA) RNA: UUUGAUUAAUAUGAUAUCGUUCUUUCUUGUUUUAAUAUUCUUUCUCGAUAUCAUAUUAAUCUUU | 27.9
33 | Ib_S2_P5E.1_K5.1_C5.1_H5.1_[T1A]_A5.1_F5.1_[T9C]_T5.1 (ssRNA) RNA: UUUGAUUAAUAUGAUAUCGUUCUUUCUAGUAUUAUCAUUCUUUCUCGAUAUCAUAUUAAUCUUU | > 2300
34 | Ib_S2_P5E.1_K5.1_C5.1_H5.1_[G2A]_A5.1_F5.1_[T9C]_T5.1 (ssRNA) RNA: UUUGAUUAAUAUGAUAUCGUUCUUUCUUAUAUUAUCAUUCUUUCUCGAUAUCAUAUUAAUCUUU | 429
35 | Ib_S2_P5E.1_K5.1_C5.1_H5.1_[G2C]_A5.1_F5.1_[T9A]_T5.1 (ssRNA) RNA: UUUGAUUAAUAUGAUAUCGUUCUUUCUUCUAUUAUAAUUCUUUCUCGAUAUCAUAUUAAUCUUU | 1690
36 | Ib_S2_P5E.1_K5.1_C5.1_H5.1_[T3C]_A5.1_F5.1_[T9A]_T5.1 (ssRNA) RNA: UUUGAUUAAUAUGAUAUCGUUCUUUCUUGCAUUAUAAUUCUUUCUCGAUAUCAUAUUAAUCUUU | 608
37 | Ia_S2_P4E.1_K4.1_C4.1_H4.1_A4.1_[T7A]_F4.1_T4.1 (ssRNA) RNA: UUUGAUUAAUAUGAUAUCGUUCUUUCUUGUAUAAUAUUCUUUCUCGAUAUCAUAUUAAUCUUU | 0.749
38 | Ib_S2_P5E.1_K5.1_C5.1_H5.1_[A4T]_A5.1_F5.1_[T9C]_T5.1 (ssRNA) RNA: UUUGAUUAAUAUGAUAUCGUUCUUUCUUGUUUUAUCAUUCUUUCUCGAUAUCAUAUUAAUCUUU | 1480
39 | Ib_S2_P5E.1_K5.1_C5.1_H5.1_[T1C]_A5.1_F5.1_[A10G]_T5.1 (ssRNA) RNA: UUUGAUUAAUAUGAUAUCGUUCUUUCUCGUAUUAUUGUUCUUUCUCGAUAUCAUAUUAAUCUUU | 1750
40 | Ib_S2_P5E.1_K5.1_C5.1_H5.1_[T1C]_A5.1_F5.1_[A10C]_T5.1 (ssRNA) RNA: UUUGAUUAAUAUGAUAUCGUUCUUUCUCGUAUUAUUCUUCUUUCUCGAUAUCAUAUUAAUCUUU | 2010
41 | Ib_S2_P5E.1_K5.1_C5.1_H5.1_[T1A]_A5.1_F5.1_[A10C]_T5.1 (ssRNA) RNA: UUUGAUUAAUAUGAUAUCGUUCUUUCUAGUAUUAUUCUUCUUUCUCGAUAUCAUAUUAAUCUUU | > 2300
42 | Ib_S2_P5E.1_K5.1_C5.1_H5.1_[T1A]_A5.1_F5.1_[A10T]_T5.1 (ssRNA) RNA: UUUGAUUAAUAUGAUAUCGUUCUUUCUAGUAUUAUUUUUCUUUCUCGAUAUCAUAUUAAUCUUU | > 2300
43 | Ib_S2_P5E.1_K5.1_C5.1_H5.1_[G2C]_A5.1_F5.1_[A10G]_T5.1 (ssRNA) RNA: UUUGAUUAAUAUGAUAUCGUUCUUUCUUCUAUUAUUGUUCUUUCUCGAUAUCAUAUUAAUCUUU | > 2300
44 | Ib_S2_P5E.1_K5.1_C5.1_H5.1_[G2A]_A5.1_F5.1_[A10G]_T5.1 (ssRNA) RNA: UUUGAUUAAUAUGAUAUCGUUCUUUCUUAUAUUAUUGUUCUUUCUCGAUAUCAUAUUAAUCUUU | 420
45 | Ib_S2_P5E.1_K5.1_C5.1_H5.1_[G2T]_A5.1_F5.1_[A10C]_T5.1 (ssRNA) RNA: UUUGAUUAAUAUGAUAUCGUUCUUUCUUUUAUUAUUCUUCUUUCUCGAUAUCAUAUUAAUCUUU | > 2300
